This is an account of results in US20040258659A1 (UNIVERSITE PIERRE ET MARIE CURIE PARIS VI, published 2004).

In experiment [1] the target is T1, CCR5 (UniProt P51681 1-352, limits assumed). The experiment in a line: cell-based or functional assay.
Experiment [2] deals with T1, CCR5. The experiment in a line: competitive radioligand binding on whole CHO-CCR5 cells at 4 C, 12 pM [125I]MIP-1α tracer. As for the experimental part:
Assays were carried out essentially as (11). CHO—CCR5 cells were seeded into 24 well plates (8×10⁴ cells/well). […] After incubation, cells were washed, lysed, and the lysaes counted using a Beckman Gamma 4000 scintillation counter. Determinations were performed in duplicate and IC₅₀ values derived from monophasic curves (competition binding; one-site) fitted using Prism software (GraphPad).

T1 sequence (P51681 whole entry): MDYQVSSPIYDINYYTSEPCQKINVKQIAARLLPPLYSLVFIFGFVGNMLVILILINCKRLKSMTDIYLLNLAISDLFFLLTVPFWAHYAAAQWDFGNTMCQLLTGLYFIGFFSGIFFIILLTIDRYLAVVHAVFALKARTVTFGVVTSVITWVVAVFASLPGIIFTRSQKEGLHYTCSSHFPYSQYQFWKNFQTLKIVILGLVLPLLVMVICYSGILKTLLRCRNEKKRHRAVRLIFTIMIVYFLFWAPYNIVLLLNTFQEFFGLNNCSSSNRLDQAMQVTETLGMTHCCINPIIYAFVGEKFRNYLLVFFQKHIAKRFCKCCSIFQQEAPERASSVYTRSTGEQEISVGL

B1: LSPVSSQSSA-RANTES (10-68) (P1) (ligand, human)
chain: LSPVSSQSSACCFAYIARPLPRAHIKEYFYTSGKCSNPAVVFVTRKNRQVCANPEKKWVREYINSLEMS
notes: range 33-91; Made by total chemical synthesis; The range 10-68 counts on mature RANTES, not on the precursor; also called mutant P1; variant P1
Take B1: the “IC50, R5-tropic envelope-mediated cell fusion assay” value in experiment [1] was determined as 7 nM. In addition, in experiment [2], the IC50 is 0.3 nM.

B2: FSPLSSQSSA-RANTES (10-68) (P2) (ligand, human)
chain: FSPLSSQSSACCFAYIARPLPRAHIKEYFYTSGKCSNPAVVFVTRKNRQVCANPEKKWVREYINSLEMS
notes: range 33-91; Made by total chemical synthesis; The range 10-68 counts on mature RANTES, not on the precursor; also called mutant P2; RANTES P2
For the molecule B2, the “IC50, R5-tropic envelope-mediated cell fusion assay” value in experiment [1] is 0.6 nM. The molecule further displayed an IC50 in experiment [2] of 0.2 nM.

Broadly, the IC50 is the midpoint of a concentration-inhibition curve. A low value points to greater potency.
